Reference: paper PMC3585324, “InterAKTions with FKBPs - Mutational and Pharmacological Exploration” (PLoS ONE, 2013)
One block for each binder: values may come before it.

Key:
GST_Akt1^S473D = target: T1, GST_Akt1^S473D (UniProt P31749 1-480, S473D); test: pull-down; GST pull-down: 15 µM FKBPs or Cyp40 with 22 µM GST_Akt1 S473D or GST_Akt1 S473D_ΔPH on glutathione resin, 3 h, 4 °C, NETN buffer (20 mM Tris-HCl pH 8.0, 100 mM NaCl, 1 mM EDTA, 0.5% igepal); AMP-PNP (5 mM), rapamycin (1 µM) or DMSO where indicated; Western blot; settings: both partners purified
T1 construct: Akt1 with the phosphomimetic S473D, called constitutively active; also called purified GST-tagged Akt1S473D; GST-tagged active Akt

[1] = target: T2, purified inactive Akt1 (untagged) (UniProt P31749 1-480); test: pull-down; FLAG pull-down: FLAG column saturated with FKBP51_FLAG, 20 µM inactive Akt, NETN buffer, 4 °C overnight, eluted with FLAG peptide; Western blot; settings: both partners purified
T2 construct: source: bought: Merck Millipore
T2 sequence (P31749 whole entry): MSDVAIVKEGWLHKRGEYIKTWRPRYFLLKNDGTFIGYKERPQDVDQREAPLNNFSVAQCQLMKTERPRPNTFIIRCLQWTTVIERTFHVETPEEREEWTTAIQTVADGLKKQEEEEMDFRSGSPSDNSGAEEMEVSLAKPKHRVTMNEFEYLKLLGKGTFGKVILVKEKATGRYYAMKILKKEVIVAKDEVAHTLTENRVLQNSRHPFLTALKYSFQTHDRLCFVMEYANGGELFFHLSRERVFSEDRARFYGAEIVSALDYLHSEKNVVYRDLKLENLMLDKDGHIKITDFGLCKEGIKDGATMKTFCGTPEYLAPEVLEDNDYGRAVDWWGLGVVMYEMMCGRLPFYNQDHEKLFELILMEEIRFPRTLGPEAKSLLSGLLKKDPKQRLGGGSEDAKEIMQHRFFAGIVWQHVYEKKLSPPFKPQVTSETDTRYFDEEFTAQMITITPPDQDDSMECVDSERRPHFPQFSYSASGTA

T1 sequence (P31749 whole entry S473D): as the sequence (P31749 whole entry) above, with S473D counted along it

- binding result (GST_Akt1^S473D): binds
B3: purified isolated FK506-binding domain of FKBP51 (FKBP51FK1) (domain or fragment, UniProt Q13451 1-140, looked up)
chain: MTTDEGAKNNEESPTATVAEQGEDITSKKDRGVLKIVKRVGNGEETPMIGDKVYVHYKGKLSNGKKFDSSHDRNEPFVFSLGKGQVIKAWDIGVATMKKGEICHLLCKPEYAYGSAGSLPKIPSNATLFFEIELLDFKGE
notes: detection was with an antibody against the FK1 domain; also called FLAG-tagged FKBP51FK1; source: purified

- binding result (GST_Akt1^S473D): binds
- binding result [1]: binds
B4: purified FLAG-tagged FKBP51 (natural protein, UniProt Q13451 1-457, looked up)
chain: MTTDEGAKNNEESPTATVAEQGEDITSKKDRGVLKIVKRVGNGEETPMIGDKVYVHYKGKLSNGKKFDSSHDRNEPFVFSLGKGQVIKAWDIGVATMKKGEICHLLCKPEYAYGSAGSLPKIPSNATLFFEIELLDFKGEDLFEDGGIIRRTKRKGEGYSNPNEGATVEIHLEGRCGGRMFDCRDVAFTVGEGEDHDIPIGIDKALEKMQREEQCILYLGPRYGFGEAGKPKFGIEPNAELIYEVTLKSFEKAKESWEMDTKEKLEQAAIVKEKGTVYFKGGKYMQAVIQYGKIVSWLEMEYGLSEKESKASESFLLAAFLNLAMCYLKLREYTKAVECCDKALGLDSANEKGLYRRGEAQLLMNEFESAKGDFEKVLEVNPQNKAARLQISMCQKKAKEHNERDRRIYANMFKKFAEQDAKEEANKAMGKKTSEGVTNEKGTDSQAMEEEKPEGHV
notes: FKBP51, His-tagged full length; also called FKBP51_FLAG; purified FKBP51

The next lines start with the binder.

B1: purified FKBP51 ΔFK1_FLAG (domain or fragment, UniProt Q13451 143-457, looked up)
chain: FEDGGIIRRTKRKGEGYSNPNEGATVEIHLEGRCGGRMFDCRDVAFTVGEGEDHDIPIGIDKALEKMQREEQCILYLGPRYGFGEAGKPKFGIEPNAELIYEVTLKSFEKAKESWEMDTKEKLEQAAIVKEKGTVYFKGGKYMQAVIQYGKIVSWLEMEYGLSEKESKASESFLLAAFLNLAMCYLKLREYTKAVECCDKALGLDSANEKGLYRRGEAQLLMNEFESAKGDFEKVLEVNPQNKAARLQISMCQKKAKEHNERDRRIYANMFKKFAEQDAKEEANKAMGKKTSEGVTNEKGTDSQAMEEEKPEGHV
notes: FKBP51 without the FK1 domain; It was the only construct not checked by active site titration; also called FKBP51 ΔFK1 construct; pProExHta_ΔFK1; source: purified
- binding result (GST_Akt1^S473D): binds

B2: purified FKBP52 (natural protein, UniProt Q02790 1-459, looked up)
chain: MTAEEMKATESGAQSAPLPMEGVDISPKQDEGVLKVIKREGTGTEMPMIGDRVFVHYTGWLLDGTKFDSSLDRKDKFSFDLGKGEVIKAWDIAIATMKVGEVCHITCKPEYAYGSAGSPPKIPPNATLVFEVELFEFKGEDLTEEEDGGIIRRIQTRGEGYAKPNEGAIVEVALEGYYKDKLFDQRELRFEIGEGENLDLPYGLERAIQRMEKGEHSIVYLKPSYAFGSVGKEKFQIPPNAELKYELHLKSFEKAKESWEMNSEEKLEQSTIVKERGTVYFKEGKYKQALLQYKKIVSWLEYESSFSNEEAQKAQALRLASHLNLAMCHLKLQAFSAAIESCNKALELDSNNEKGLFRRGEAHLAVNDFELARADFQKVLQLYPNNKAAKTQLAVCQQRIRRQLAREKKLYANMFERLAEEENKAKAEASSGDHPTDTEMKEEQKSNTAGSQSQVETEA
notes: FKBP52, His-tagged full length
- binding result (GST_Akt1^S473D): binds
